From paper PMC7299343, “Two forms of Opa1 cooperate to complete fusion of the mitochondrial inner-membrane” (eLife, 2020) come the findings set out here.

The labels stand for the following.
B3: long form of human Opa1 (l-Opa1), wild type (natural protein, UniProt O60313-1 88-960, looked up)
chain: FWPARLATRLLKLRYLILGSAVGGGYTAKKTFDQWKDMIPDLSEYKWIVPDIVWEIDEYIDFEKIRKALPSSEDLVKLAPDFDKIVESLSLLKDFFTSGSPEETAFRATDRGSESDKHFRKVSDKEKIDQLQEELLHTQLKYQRILERLEKENKELRKLVLQKDDKGIHHRKLKKSLIDMYSEVLDVLSDYDASYNTQDHLPRVVVVGDQSAGKTSVLEMIAQARIFPRGSGEMMTRSPVKVTLSEGPHHVALFKDSSREFDLTKEEDLAALRHEIELRMRKNVKEGCTVSPETISLNVKGPGLQRMVLVDLPGVINTVTSGMAPDTKETIFSISKAYMQNPNAIILCIQDGSVDAERSIVTDLVSQMDPHGRRTIFVLTKVDLAEKNVASPSRIQQIIEGKLFPMKALGYFAVVTGKGNSSESIEAIREYEEEFFQNSKLLKTSMLKAHQVTTRNLSLAVSDCFWKMVRESVEQQADSFKATRFNLETEWKNNYPRLRELDRNELFEKAKNEILDEVISLSQVTPKHWEEILQQSLWERVSTHVIENIYLPAAQTMNSGTFNTTVDIKLKQWTDKQLPNKAVEVAWETLQEEFSRFMTEPKGKEHDDIFDKLKEAVKEESIKRHKWNDFAEDSLRVIQHNALEDRSISDKQQWDAAIYFMEEALQARLKDTENAIENMVGPDWKKRWLYWKNRTQEQCVHNETKNELEKMLKCNEEHPAYLASDEITTVRKNLESRGVEVDPSLIKDTWHQVYRRHFLKTALNHCNLCRRGFYYYQRHFVDSELECNDVVLFWRIQRMLAITANTLRQQLTNTEVRRLEKNVKEVLEDFAEDGEKKIKLLTGKRVQLAEDLKKVREIQEKLDAFIEALHQEK
notes: OPA1, human, long form, residues 88-960 of UniProt O60313-1 (isoform 1), codon optimized for Pichia pastoris; Construct: Twin-Strep-tag, HRV 3C site, (G4S)3 linker at the N-terminus; (G4S)3 linker, TEV site, deca-histidine tag at the C-terminus; also called WT l-Opa1; TwinStrep-lOPA1-H10

Data set [1] concerns the molecule itself. Briefly: native gel or EMSA; Blue native PAGE (BN-PAGE), 3-12% Bis-Tris gradient gels, sample buffer with 0.25% Coomassie G-250 and 1 mM DDM, cathode buffer with 1 mM DDM, 4 °C; mixtures of l-Opa1 and s-Opa1 incubated on ice for 10 min before loading. (In EMSA bound probe runs differently from free probe, usually more slowly.)
Data set [2] concerns the target B3. The description is as above. The following applies: both partners purified.

B1: short form of human Opa1 (s-Opa1, S1 form), wild type (natural protein, UniProt O60313-1 195-960, looked up)
chain: ATDRGSESDKHFRKVSDKEKIDQLQEELLHTQLKYQRILERLEKENKELRKLVLQKDDKGIHHRKLKKSLIDMYSEVLDVLSDYDASYNTQDHLPRVVVVGDQSAGKTSVLEMIAQARIFPRGSGEMMTRSPVKVTLSEGPHHVALFKDSSREFDLTKEEDLAALRHEIELRMRKNVKEGCTVSPETISLNVKGPGLQRMVLVDLPGVINTVTSGMAPDTKETIFSISKAYMQNPNAIILCIQDGSVDAERSIVTDLVSQMDPHGRRTIFVLTKVDLAEKNVASPSRIQQIIEGKLFPMKALGYFAVVTGKGNSSESIEAIREYEEEFFQNSKLLKTSMLKAHQVTTRNLSLAVSDCFWKMVRESVEQQADSFKATRFNLETEWKNNYPRLRELDRNELFEKAKNEILDEVISLSQVTPKHWEEILQQSLWERVSTHVIENIYLPAAQTMNSGTFNTTVDIKLKQWTDKQLPNKAVEVAWETLQEEFSRFMTEPKGKEHDDIFDKLKEAVKEESIKRHKWNDFAEDSLRVIQHNALEDRSISDKQQWDAAIYFMEEALQARLKDTENAIENMVGPDWKKRWLYWKNRTQEQCVHNETKNELEKMLKCNEEHPAYLASDEITTVRKNLESRGVEVDPSLIKDTWHQVYRRHFLKTALNHCNLCRRGFYYYQRHFVDSELECNDVVLFWRIQRMLAITANTLRQQLTNTEVRRLEKNVKEVLEDFAEDGEKKIKLLTGKRVQLAEDLKKVREIQEKLDAFIEALHQEK
notes: OPA1, human, short form corresponding to the S1 form that results from Oma1 cleavage, residues 195-960 of UniProt O60313-1, codon optimized for Pichia pastoris; Construct: Twin-Strep-tag, HRV 3C site, (G4S)3 linker at the N-terminus; (G4S)3 linker, TEV site, deca-histidine tag at the C-terminus; His tag said to be cleaved with TEV in all the functional assays; also called WT s-Opa1; …
Regarding B1, in data set [1], the binding result was “binds”.

B2: G300E mutant of s-Opa1 (s1) (natural protein, human, UniProt O60313-1 195-960, looked up)
chain: ATDRGSESDKHFRKVSDKEKIDQLQEELLHTQLKYQRILERLEKENKELRKLVLQKDDKGIHHRKLKKSLIDMYSEVLDVLSDYDASYNTQDHLPRVVVVGDQSAEKTSVLEMIAQARIFPRGSGEMMTRSPVKVTLSEGPHHVALFKDSSREFDLTKEEDLAALRHEIELRMRKNVKEGCTVSPETISLNVKGPGLQRMVLVDLPGVINTVTSGMAPDTKETIFSISKAYMQNPNAIILCIQDGSVDAERSIVTDLVSQMDPHGRRTIFVLTKVDLAEKNVASPSRIQQIIEGKLFPMKALGYFAVVTGKGNSSESIEAIREYEEEFFQNSKLLKTSMLKAHQVTTRNLSLAVSDCFWKMVRESVEQQADSFKATRFNLETEWKNNYPRLRELDRNELFEKAKNEILDEVISLSQVTPKHWEEILQQSLWERVSTHVIENIYLPAAQTMNSGTFNTTVDIKLKQWTDKQLPNKAVEVAWETLQEEFSRFMTEPKGKEHDDIFDKLKEAVKEESIKRHKWNDFAEDSLRVIQHNALEDRSISDKQQWDAAIYFMEEALQARLKDTENAIENMVGPDWKKRWLYWKNRTQEQCVHNETKNELEKMLKCNEEHPAYLASDEITTVRKNLESRGVEVDPSLIKDTWHQVYRRHFLKTALNHCNLCRRGFYYYQRHFVDSELECNDVVLFWRIQRMLAITANTLRQQLTNTEVRRLEKNVKEVLEDFAEDGEKKIKLLTGKRVQLAEDLKKVREIQEKLDAFIEALHQEK
notes: OPA1, human, short form (S1), residues 195-960 of UniProt O60313-1, with G300E; same tags and linkers as m2; also called G300E s-Opa1; sOPA1 (G300E); source: Pichia pastoris SMD1163, purified
In the case of B2, the binding result in data set [2] is listed as “binds”.
For B3, the binding result in data set [1] is listed as “binds”.
